According to PMC7419483, “Phenolic metabolism in the hornwort Anthoceros agrestis: 4-coumarate CoA ligase and 4-hydroxybenzoate CoA ligase” (Plant Cell Reports, 2020):
Values belong to the molecule of their own block, whether it stands above or below them.

Assays:
[1] = molecular target: Aa4CL_1 (Anthoceros agrestis, UniProt A0A6M6A6J9); experiment: spectrophotometric CoA-ester formation, Michaelis-Menten; format: biochemical; conditions: pH 7.0 potassium phosphate, 40 °C
Description: spectrophotometric CoA-ester formation, Michaelis-Menten on Aa4CL_1

[2] = substrate: CC(C)(COP(=O)(O)OP(=O)(O)OC[C@H]1O[C@@H](n2cnc3c(N)ncnc32)[C@H](O)[C@@H]1OP(=O)(O)O)[C@@H](O)C(=O)NCCC(=O)NCCS; experiment: purified protein; format: biochemical, Anthoceros agrestis; conditions: pH 7.0 potassium phosphate, 45 °C, co-substrates 4-hydroxybenzoic acid and ATP, MgCl2, 1 mM DTT
[3] = substrate: Nc1ncnc2c1ncn2[C@@H]1O[C@H](COP(=O)(O)OP(=O)(O)OP(=O)(O)O)[C@@H](O)[C@H]1O; experiment: purified protein; conditions: pH 7.0 potassium phosphate, 45 °C, co-substrates 4-hydroxybenzoic acid and CoA, MgCl2, 1 mM DTT
[4] = substrate: O=C(O)c1ccc(O)cc1; experiment: purified protein; conditions: apparent Km, pH 7.0 potassium phosphate, 45 °C, standard assay […] ATP, […] MgCl2, 500 µM CoA, 1 mM DTT
[5] = standard assay […] ATP, […] MgCl2, 500 µM CoA, 1 mM DTT
[6] = MgCl2, hydroxycinnamic acid co-substrate not stated

Aa4CL_1, sequence (A0A6M6A6J9 entry or part of it): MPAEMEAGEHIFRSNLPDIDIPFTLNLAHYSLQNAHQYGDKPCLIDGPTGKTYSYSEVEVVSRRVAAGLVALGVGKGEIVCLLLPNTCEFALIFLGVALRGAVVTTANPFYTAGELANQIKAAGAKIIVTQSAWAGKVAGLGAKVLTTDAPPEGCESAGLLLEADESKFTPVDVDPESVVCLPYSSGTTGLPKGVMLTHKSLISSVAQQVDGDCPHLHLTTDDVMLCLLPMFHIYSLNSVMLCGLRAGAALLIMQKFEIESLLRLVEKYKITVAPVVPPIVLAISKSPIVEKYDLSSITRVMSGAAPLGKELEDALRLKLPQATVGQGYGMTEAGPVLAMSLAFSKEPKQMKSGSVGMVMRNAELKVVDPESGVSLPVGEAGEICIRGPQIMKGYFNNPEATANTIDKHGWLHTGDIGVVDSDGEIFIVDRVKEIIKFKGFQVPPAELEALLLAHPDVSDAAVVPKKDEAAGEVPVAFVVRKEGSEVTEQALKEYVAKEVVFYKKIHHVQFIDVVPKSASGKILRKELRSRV

Molecule: CC(C)(COP(=O)(O)OP(=O)(O)OC[C@H]1O[C@@H](n2cnc3c(N)ncnc32)[C@H](O)[C@@H]1OP(=O)(O)O)[C@@H](O)C(=O)NCCC(=O)NCCS [CoA]
Km [1, 6]: 10.2 ± 0.2 µM

Molecule: Nc1ncnc2c1ncn2[C@@H]1O[C@H](COP(=O)(O)OP(=O)(O)OP(=O)(O)O)[C@@H](O)[C@H]1O [ATP]
Km [1, 6]: 227 ± 31.8 µM

B1: Aa4HBCL (Anthoceros agrestis) (protein)
chain: MASLSEPEHIFRSSLPAAAIPNVTVPEYILLNAIRPEDEHRVAVVDASDERQYTYGQTRILVKNVAAGLRNLLGIRKGDVVFVLLPNTAEYFILVLGIMWAGGVYSGGNPYAHPGEIEKQIQDSEAKVVVTDSTYFEKVKQFAHQLPILLTPVSSAAPTDKSVTPNPEGSTSVQRLLEYDGSEYVPPEPISQDDLCALPYSSGTTGLSKGVKLTHRNLLANTTRTCPIPAVPPTPAQLASVKRYVVLGLLPFFHIYGTTGICCSTMRYQGTLVVLPRYDLRLMLAALIKYEVTFTPLVPPIILQMVKSPIVNEFDLSKLKLEGVMTAAAPLPPDIQKAFEARFPGVELRQAYGLTEYSCITLSHVPLGYPRGNAKKGSVGFLIPGTEMKILDPDTGKSLPANRAGEICVRGESTMNGYFKNEEATAATIDEQGWLHTGDVGYIDDDGDVFIVERAKELIKYKGFQVPPAELEAILVAHPLIADAAVIPIPDDEAGELPAACVVLAPNSHLNEEDVIRYVGAKVASYKKVRHVEFVSSIPKSLSGKTLRRVLKDDILKRLKKTENQLI
Km [2]: 247.8 ± 19.9 µM
Vmax [2]: 1.95 µmol/min/mg
kcat [2]: 2.2 ± 0.1 s⁻¹
kcat/Km [2]: 8700 M⁻¹ s⁻¹
Km [3]: 1175.3 ± 135.2 µM
Vmax [3]: 1.4 µmol/min/mg
kcat [3]: 1.6 s⁻¹
kcat/Km [3]: 1300 M⁻¹ s⁻¹
Km [4]: 664.2 ± 1.5 µM
Vmax [4]: 0.99 µmol/min/mg
kcat [4]: 1.1 s⁻¹
kcat/Km [4]: 1700 M⁻¹ s⁻¹

Continued, values first:

Km ([1]; standard assay […] ATP, […] MgCl2, 500 µM CoA, no DTT): 15.5 ± 1.9 µM
Molecule: O=C(O)/C=C/c1ccc(O)c(O)c1 [caffeic acid]

Km [1, 5]: 61.4 ± 21.9 µM
Molecule: COc1cc(/C=C/C(=O)O)ccc1O [ferulic acid]

Km [1, 5]: 218 ± 74.7 µM
Molecule: O=C(O)/C=C/c1ccccc1 [cinnamic acid]

Km [1, 5]: 12.8 ± 4 µM
Molecule: O=C(O)/C=C/c1ccc(O)cc1 [4-coumaric acid]

Km [1, 5]: 9.9 ± 1.8 µM
Molecule: COc1ccc(/C=C/C(=O)O)cc1O [isoferulic acid]
